In FireProtDB (doi:10.1021/bi962163z):

Conditions: Homo sapiens, Thermal, DSC, reversible: no, whole UniProt chain shown

B1: Annexin A5 wild type, P08758 (protein)
chain: MAQVLRGTVTDFPGFDERADAETLRKAMKGLGTDEESILTLLTSRSNAQRQEISAAFKTLFGRDLLDDLKSELTGKFEKLIVALMKPSRLYDAYELKHALKGAGTNEKVLTEIIASRTPEELRAIKQVYEEEYGSSLEDDVVGDTSGYYQRMLVVLLQANRDPDAGIDEAQVEQDAQALFQAGELKWGTDEEKFITIFGTRSVSHLRKVFDKYMTISGFQIEETIDRETSGNLEQLLLAVVKSIRSIPAYLAETLYYAMKGAGTDDHTLIRVMVSRSEIDLFNIRKEFRKNFATSLYSMIKGDTSGDYKKALLLLCGEDD
- Tm (pH 4, Sodium phosphate 20 mM): 40.6 °C
- unfolding enthalpy (calorimetric) (pH 4, Sodium phosphate 20 mM): 128 kcal/mol
- unfolding enthalpy (van 't Hoff) (pH 4, Sodium phosphate 20 mM): 151 kcal/mol
- Tm (pH 6, Sodium phosphate 20 mM): 50.5 °C
- unfolding enthalpy (calorimetric) (pH 6, Sodium phosphate 20 mM): 147 kcal/mol
- unfolding enthalpy (van 't Hoff) (pH 6, Sodium phosphate 20 mM): 174 kcal/mol
- Tm (pH 7, Sodium phosphate 20 mM): 53.4 °C
- unfolding enthalpy (calorimetric) (pH 7, Sodium phosphate 20 mM): 163 kcal/mol
- unfolding enthalpy (van 't Hoff) (pH 7, Sodium phosphate 20 mM): 189 kcal/mol
- Tm (pH 8, Sodium phosphate 20 mM): 54.4 °C
- unfolding enthalpy (calorimetric) (pH 8, Sodium phosphate 20 mM): 162 kcal/mol
- unfolding enthalpy (van 't Hoff) (pH 8, Sodium phosphate 20 mM): 199 kcal/mol
- Tm (pH 8, Tris 50 mM, KCl 100 mM): 52.5 °C
- unfolding enthalpy (calorimetric) (pH 8, Tris 50 mM, KCl 100 mM): 163 kcal/mol
- unfolding enthalpy (van 't Hoff) (pH 8, Tris 50 mM, KCl 100 mM): 190 kcal/mol
